Experimental findings from PMC5006282 are described below.

What all share (assay): pull-down MS
Common to all, as to conditions: 5' biotin on sense strand; DNA immobilised on streptavidin beads in 20 mM Tris-HCl pH 8.0, 200 mM NaCl, 0.5 mM EDTA, 0.03% NP40; protein binding buffer and temperature not in the …

Data set [1] concerns the target NFKB2 (NF-kappa B p100/p52) (Homo sapiens (Raji)) (UniProt Q00653).
For data set [2], the target named is Ikaros (Homo sapiens (Raji, Molt4 nuclear extract)) (UniProt Q13422).
UniProt Q13422, sequence (Q13422 whole entry): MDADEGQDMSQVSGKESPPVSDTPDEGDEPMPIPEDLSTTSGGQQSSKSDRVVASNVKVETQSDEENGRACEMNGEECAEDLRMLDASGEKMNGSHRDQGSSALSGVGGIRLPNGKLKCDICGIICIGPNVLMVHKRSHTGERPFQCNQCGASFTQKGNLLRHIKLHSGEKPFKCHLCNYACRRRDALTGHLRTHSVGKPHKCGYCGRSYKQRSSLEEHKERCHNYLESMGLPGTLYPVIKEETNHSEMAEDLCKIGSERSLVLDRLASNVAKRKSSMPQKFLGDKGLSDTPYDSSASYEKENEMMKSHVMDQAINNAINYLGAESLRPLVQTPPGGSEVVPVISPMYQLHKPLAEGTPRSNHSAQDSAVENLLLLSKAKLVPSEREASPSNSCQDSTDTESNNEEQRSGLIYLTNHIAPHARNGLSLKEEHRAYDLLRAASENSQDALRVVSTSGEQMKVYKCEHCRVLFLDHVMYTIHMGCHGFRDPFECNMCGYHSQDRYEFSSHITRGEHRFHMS
Data set [3] concerns the target HCF-1 (Homo sapiens (Raji, Molt4)) (UniProt P51610).
UniProt P51610, sequence (P51610 whole entry): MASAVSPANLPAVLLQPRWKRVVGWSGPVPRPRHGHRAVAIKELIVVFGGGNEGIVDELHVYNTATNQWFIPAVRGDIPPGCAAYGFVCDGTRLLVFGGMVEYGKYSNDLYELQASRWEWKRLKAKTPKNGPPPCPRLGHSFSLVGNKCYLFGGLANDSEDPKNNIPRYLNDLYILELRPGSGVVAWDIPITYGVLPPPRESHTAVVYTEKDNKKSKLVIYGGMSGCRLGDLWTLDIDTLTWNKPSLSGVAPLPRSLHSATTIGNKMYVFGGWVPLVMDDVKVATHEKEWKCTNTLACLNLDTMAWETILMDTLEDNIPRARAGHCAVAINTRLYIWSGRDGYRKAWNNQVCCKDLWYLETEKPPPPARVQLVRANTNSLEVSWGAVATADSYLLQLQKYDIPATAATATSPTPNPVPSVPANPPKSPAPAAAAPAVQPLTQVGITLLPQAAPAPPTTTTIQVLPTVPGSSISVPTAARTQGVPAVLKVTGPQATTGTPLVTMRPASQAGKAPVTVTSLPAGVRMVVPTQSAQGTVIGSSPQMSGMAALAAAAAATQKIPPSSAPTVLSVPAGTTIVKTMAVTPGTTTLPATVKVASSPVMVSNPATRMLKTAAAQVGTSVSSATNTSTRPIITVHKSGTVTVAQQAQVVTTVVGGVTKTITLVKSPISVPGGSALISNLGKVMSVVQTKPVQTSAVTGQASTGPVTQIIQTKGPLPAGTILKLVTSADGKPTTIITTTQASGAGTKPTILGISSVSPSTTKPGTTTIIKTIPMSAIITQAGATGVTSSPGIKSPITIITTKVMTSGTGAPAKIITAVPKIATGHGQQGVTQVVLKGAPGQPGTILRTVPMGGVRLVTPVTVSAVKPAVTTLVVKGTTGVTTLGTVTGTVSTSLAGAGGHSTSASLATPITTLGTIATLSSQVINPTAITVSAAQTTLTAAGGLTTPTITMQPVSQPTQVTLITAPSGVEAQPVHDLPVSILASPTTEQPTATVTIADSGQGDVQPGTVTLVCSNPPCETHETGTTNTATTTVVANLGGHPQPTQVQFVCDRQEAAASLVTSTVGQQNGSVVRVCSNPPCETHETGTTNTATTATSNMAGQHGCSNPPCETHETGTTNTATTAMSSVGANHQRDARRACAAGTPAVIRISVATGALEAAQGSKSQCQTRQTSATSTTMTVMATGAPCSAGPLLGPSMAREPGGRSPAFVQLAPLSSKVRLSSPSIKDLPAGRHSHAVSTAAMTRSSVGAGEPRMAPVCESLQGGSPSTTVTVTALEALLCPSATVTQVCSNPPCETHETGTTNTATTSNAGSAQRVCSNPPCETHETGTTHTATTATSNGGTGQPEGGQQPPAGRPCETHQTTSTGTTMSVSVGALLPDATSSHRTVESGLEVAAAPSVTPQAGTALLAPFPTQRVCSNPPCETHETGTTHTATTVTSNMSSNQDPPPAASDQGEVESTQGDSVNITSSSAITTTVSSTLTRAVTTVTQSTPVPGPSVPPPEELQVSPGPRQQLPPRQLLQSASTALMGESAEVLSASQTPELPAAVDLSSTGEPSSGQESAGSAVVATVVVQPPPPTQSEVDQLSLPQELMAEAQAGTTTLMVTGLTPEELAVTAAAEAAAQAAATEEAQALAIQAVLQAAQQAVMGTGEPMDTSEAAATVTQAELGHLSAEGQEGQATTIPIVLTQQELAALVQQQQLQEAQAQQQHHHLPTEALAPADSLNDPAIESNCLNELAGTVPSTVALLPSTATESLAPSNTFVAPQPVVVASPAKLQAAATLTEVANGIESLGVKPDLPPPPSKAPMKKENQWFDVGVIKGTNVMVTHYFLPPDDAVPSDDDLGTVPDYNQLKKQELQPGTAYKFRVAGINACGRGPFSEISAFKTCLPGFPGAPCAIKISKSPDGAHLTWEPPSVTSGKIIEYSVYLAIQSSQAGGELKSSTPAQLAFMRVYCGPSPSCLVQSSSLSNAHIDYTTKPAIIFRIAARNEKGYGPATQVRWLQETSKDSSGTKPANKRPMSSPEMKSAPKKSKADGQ
Data set [4] addresses Aiolos (Homo sapiens (Raji)) (UniProt Q9UKT9).
UniProt Q9UKT9, sequence (Q9UKT9 whole entry): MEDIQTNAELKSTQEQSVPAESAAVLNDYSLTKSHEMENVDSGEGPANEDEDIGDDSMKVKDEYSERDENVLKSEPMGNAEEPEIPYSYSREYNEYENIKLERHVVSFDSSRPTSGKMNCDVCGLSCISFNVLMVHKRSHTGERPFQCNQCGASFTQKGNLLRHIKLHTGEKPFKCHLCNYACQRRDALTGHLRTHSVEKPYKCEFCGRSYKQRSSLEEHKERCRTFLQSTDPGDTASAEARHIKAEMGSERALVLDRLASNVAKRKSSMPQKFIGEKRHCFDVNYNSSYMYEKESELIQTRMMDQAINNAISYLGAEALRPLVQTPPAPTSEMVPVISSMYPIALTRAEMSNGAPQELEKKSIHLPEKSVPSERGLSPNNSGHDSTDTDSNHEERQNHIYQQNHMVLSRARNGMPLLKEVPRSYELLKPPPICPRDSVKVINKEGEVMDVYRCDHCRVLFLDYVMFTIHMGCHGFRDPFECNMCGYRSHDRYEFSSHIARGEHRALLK
In data set [5] the target is Helios (Homo sapiens (Raji)) (UniProt Q9UKS7).
UniProt Q9UKS7, sequence (Q9UKS7 whole entry): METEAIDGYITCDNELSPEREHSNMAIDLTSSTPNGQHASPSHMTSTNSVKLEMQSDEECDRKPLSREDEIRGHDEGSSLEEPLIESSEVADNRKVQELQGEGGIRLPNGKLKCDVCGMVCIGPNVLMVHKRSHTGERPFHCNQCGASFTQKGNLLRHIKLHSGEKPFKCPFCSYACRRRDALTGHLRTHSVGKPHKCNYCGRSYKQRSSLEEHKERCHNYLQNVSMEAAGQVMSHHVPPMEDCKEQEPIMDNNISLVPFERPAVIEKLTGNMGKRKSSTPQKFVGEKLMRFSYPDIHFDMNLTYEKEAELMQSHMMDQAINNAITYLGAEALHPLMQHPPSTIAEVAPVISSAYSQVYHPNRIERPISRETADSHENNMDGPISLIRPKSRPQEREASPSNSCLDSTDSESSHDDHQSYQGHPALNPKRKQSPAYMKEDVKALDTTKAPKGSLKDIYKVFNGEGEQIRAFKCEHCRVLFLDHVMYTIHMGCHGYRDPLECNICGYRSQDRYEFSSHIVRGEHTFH

UniProt Q00653, sequence (Q00653 whole entry): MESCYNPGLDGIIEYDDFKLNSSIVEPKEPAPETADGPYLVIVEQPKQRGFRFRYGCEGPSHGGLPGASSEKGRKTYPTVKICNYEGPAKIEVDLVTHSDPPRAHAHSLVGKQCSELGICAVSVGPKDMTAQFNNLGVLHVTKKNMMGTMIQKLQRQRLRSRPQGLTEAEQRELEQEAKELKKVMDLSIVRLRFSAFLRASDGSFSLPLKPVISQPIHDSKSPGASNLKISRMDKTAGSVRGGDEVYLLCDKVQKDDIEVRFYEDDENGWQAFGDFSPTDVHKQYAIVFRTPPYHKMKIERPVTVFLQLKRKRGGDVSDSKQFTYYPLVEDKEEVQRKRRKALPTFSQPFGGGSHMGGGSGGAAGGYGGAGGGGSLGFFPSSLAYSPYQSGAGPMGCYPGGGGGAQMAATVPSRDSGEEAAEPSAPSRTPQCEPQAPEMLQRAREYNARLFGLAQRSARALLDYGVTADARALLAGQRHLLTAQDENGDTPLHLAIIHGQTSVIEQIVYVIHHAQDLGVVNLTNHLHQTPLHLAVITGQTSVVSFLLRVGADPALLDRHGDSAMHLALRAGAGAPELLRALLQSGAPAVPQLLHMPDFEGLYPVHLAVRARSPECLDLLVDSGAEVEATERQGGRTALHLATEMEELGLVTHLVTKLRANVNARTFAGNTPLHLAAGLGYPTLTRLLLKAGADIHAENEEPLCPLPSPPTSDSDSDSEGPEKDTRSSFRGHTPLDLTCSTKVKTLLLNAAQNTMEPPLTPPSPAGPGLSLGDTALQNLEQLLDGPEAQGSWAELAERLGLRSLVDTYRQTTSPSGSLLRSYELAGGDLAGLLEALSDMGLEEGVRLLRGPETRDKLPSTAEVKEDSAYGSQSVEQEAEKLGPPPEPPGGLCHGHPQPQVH

Take “CAAAACTGCAGGCAACTAGAACTACATTTCCCGGCGTGATTTGCTGCGGAACGAACTACATCTCCCGGCAGGCTGCG (double strand) [Tandem M4 WT]”: the binding signal (SILAC ratio WT/MT) was 31.8 in data set [1]; more than 100 in data set [2]; 19 in data set [3]; more than 100 in data set [4]; more than 100 in data set [5].
